# Tests used:
# [1] = target: T1, bovine Gβ1γ1 dimer (β1γ1 subunits of the visual G protein Gt, transducin) (bovine, UniProt P62871;P02698)
# [2] = target: T1, bovine Gβ1γ1 dimer (β1γ1 subunits of …); assay: SPR; Biacore T100, 25 °C; Nb5 amine-coupled on CM5 (400-500 RU); Gβ1γ1 0.6-312 nM in 10 mM HEPES pH 7.5, 150 mM NaCl, 1 mM TCEP, 0.1% Tween-20; single-cycle kinetics, 1:1 Langmuir fit; conditions: both partners purified
# [3] = target: T1, bovine Gβ1γ1 dimer (β1γ1 subunits of …); assay: SPR; same set-up as a5; affinity based (equilibrium) analysis; conditions: both partners purified
# [4] = target: T2, mouse Gβ1 subtype from brain (mouse (endogenous in C57BL/6J brain), UniProt P62874); assay: affinity purification with mass spectrometry; cholate-solubilized, DEAE-purified C57BL/6J mouse brain extract with a two molar excess of His-tagged Nb5, Ni2+-NTA then Talon resin; Gβ gel band digested in gel, LC-MS/MS; conditions: one partner purified
# T2 construct: G protein beta subunit subtype 1, mouse brain; Extracted as Gβγ; the Gγ partner is not identified; source: endogenous, C57BL/6J mouse brain membranes, cholate-solubilized and partially purified (DEAE Sepharose)
# [5] = target: T3, mouse Gβ3 subtype from brain (mouse (endogenous in C57BL/6J brain), UniProt Q61011); assay: as above; conditions: one partner purified
# T3 construct: G protein beta subunit subtype 3, mouse brain; Extracted as Gβγ; the Gγ partner is not identified; source: endogenous, C57BL/6J mouse brain membranes, cholate-solubilized and partially purified (DEAE Sepharose)
# [6] = target: T4, mouse Gβ4 subtype from brain (mouse (endogenous in C57BL/6J brain), UniProt P29387); assay: as above; conditions: one partner purified
# T4 construct: G protein beta subunit subtype 4, mouse brain; Extracted as Gβγ; the Gγ partner is not identified; source: endogenous, C57BL/6J mouse brain membranes, cholate-solubilized and partially purified (DEAE Sepharose)
# [7] = target: T5, mouse Gβ2 subtype from brain (mouse (endogenous in C57BL/6J brain), UniProt P62880); assay: as above; conditions: one partner purified
# T5 construct: G protein beta subunit subtype 2, mouse brain; Extracted as Gβγ; the Gγ partner is not identified; source: endogenous, C57BL/6J mouse brain membranes, cholate-solubilized and partially purified (DEAE Sepharose)
# [8] = target: T6, Venus-Gβ4γ2 (Venus 156-239-Gβ4 + Venus 1-155-Gγ2) (UniProt Q9HAV0;P59768); assay: FRET or BRET; BRET between Venus-Gβγ and masGRK3ct-Nluc-HA in living HEK293T/17 cells, room temperature; GαoA, Nb5-Flag or Nb17-Flag co-transfected as competitor (plasmid ratio GαoA:Gβ:Gγ2:masGRK3ct:nanobody 2:1:1:1:12); conditions: partners not purified
# T6 construct: G protein beta subunit subtype 4, GenBank AF300648; G protein gamma subunit 2; also called Venus-Gβγ; Gβ4 + Gγ2 pair; source: HEK293T/17, transfected, in living cells; not shown: Venus 156-239 (with GGSGGG linker), N-terminal, kept
# [9] = target: T7, Venus-Gβ2γ2 (Venus 156-239-Gβ2 + Venus 1-155-Gγ2) (UniProt P62879;P59768); assay: as above; conditions: partners not purified
# T7 construct: G protein beta subunit subtype 2, GenBank AF501883; G protein gamma subunit 2; also called Venus-Gβγ; Gβ2 + Gγ2 pair; source: HEK293T/17, transfected, in living cells; not shown: Venus 156-239 (with GGSGGG linker), N-terminal, kept
# [10] = target: T8, Venus-Gβ1γ2 (Venus 156-239-Gβ1 + Venus 1-155-Gγ2) (UniProt P62873;P59768); assay: as above; conditions: partners not purified
# T8 construct: G protein beta subunit subtype 1; G protein gamma subunit 2; also called Venus-Gβγ; source: HEK293T/17, transfected, in living cells
# [11] = target: T9, Venus-Gβ3γ2 (Venus 156-239-Gβ3 + Venus 1-155-Gγ2) (UniProt P16520;P59768); assay: as above; conditions: partners not purified
# T9 construct: G protein beta subunit subtype 3, GenBank M31328; G protein gamma subunit 2; also called Venus-Gβγ; Gβ3 + Gγ2 pair; source: HEK293T/17, transfected, in living cells; not shown: Venus 156-239 (with GGSGGG linker), N-terminal, kept
binder,measurement,setting,value
Nb6 (VHH) VHH: QVQLVESGGGLVQAGGSLRLSCAASGSIFSINAMNWYRQAPGKRRELVAAITNGGSTNYADSVKGRFTISRDNAKNTVYLQMNSLKPEDTAVYYCNVGRSRGYWGQGTQVTVSS,binding result,[1],binds
"Nb5 (llama-derived nanobody against the Gβ1γ1 dimer), C-terminal His-tag (VHH, Selected from a library in the phage display vector pMESy4; not shown: His6, C-terminal, kept) VHH: QVQLVESGGGLVQAGGSLRLSCAASGSIFSINAMGWYRQAPGKQRELVAAITRGGRTNYADSVKGRFTLSRDNAKNTVYLQMNSLKPEDTAVYYCNVGRSRGYWGQGTQVTVSS",Kd,[2],43 nM
same,koff,[2],0.019 s⁻¹
same,kon,[2],440000 M⁻¹ s⁻¹
same,Kd,[3],53 nM
same,binding result,[4],binds
same,binding result,[5],binds
same,binding result,[6],binds
same,binding result,[7],binds
"Nb5-Flag (Nb5 with the 6 × His-tag replaced by the FLAG-tag) (VHH, source: HEK293T/17, transfected, in living cells; CHO-APJ cells, transiently transfected (pcDNA3.1(+)); not shown: FLAG, C-terminal, kept) VHH: QVQLVESGGGLVQAGGSLRLSCAASGSIFSINAMGWYRQAPGKQRELVAAITRGGRTNYADSVKGRFTLSRDNAKNTVYLQMNSLKPEDTAVYYCNVGRSRGYWGQGTQVTVSS",binding result,[8],binds
same,binding result,[9],binds
same,binding result,[10],binds
same,binding result,[11],binds
Nb7 (VHH) VHH: QVQLVESGGGLVQAGESLRLSCAASGNIFSINATNWYRQAPGKQRELVAGITTRGSTNYADSVKGRFTISRDNAKNTVYLQMNSLKPEDTAVYYCNVGRSRGYWGQGTQVTVSS,binding result,[1],binds

# Source: paper PMC5959942, “Targeting G protein-coupled receptor signaling at the G protein level with a selective nanobody inhibitor” (Nature Communications, 2018)
